The DeepSol protein solubility set

Assay: soluble on expression in E. coli; label from the status in PepcDB or PDB records

Row | Sequence | soluble on expression in E. coli
1 | MSLNKAILHDHLDGGLRPSTALELAKNDSYKPLLEIENISSFFDRSSSNSLEDYLEAFIHTTALMNKYENLERIAFEAAEDMHNCGINLYESRYAPLYSVNENLSIKDVLESINSGFKQAENLYGIQSGLILCGMRNDLKNVESVGEIAVKYKDLIIGFDIAGPELNFRPSLFSSTFKKVKNAGVNITIHAGEGDNVESIKDALENGAKRIGHGVRIIEDINLENNKLGETASLIRDKQIPLEICITSNIHTNMYKSYESHPIKDLVDLGFNISLNTDNRLMSNTDIVKEMNICKNIGIKNPENLLEMSASYSFLNEGHHHHHH | not soluble
2 | MSLNKPLADRMRPIKLEDVVGQEHILSKNQILNKTLQAGHITNMIFYGPPGVGKTTVANIISNMTNKKLYKLNATNASIKDIQRIVAELDSFMTMNGVLLYLDEIQNFNKKQQQSLLEYIENGKITLIASTTENPYHYIYNAILSRSTVFEFKLLTKSNVIEGLKQVIKRINDEGKTLVEYEEEALDYIATASNGDLRRAMNALELAMYAAESENKEQVFLTIHIAQESTQKKVISYDKFGDQHYDILSAFQKSIRGTDPDAAIHYLARLVKAGDLNSICRRLLVIASEDIGLAYPTAITIVKSCVDAAMQVGFPEARINLAQATLVLATAPKSNSVIEAMDRALADLDQKDIGEIPTSLKDAHYKGASDLGRGVTYKYPHHYENNYIQQQYLPENIKNEKYYGSQNNKMEQRIFSYLEQLKKEGHHHHHH | not soluble
3 | MSLNKQDKKWRVLVVDDDADVLTNTVYTLMDLKVLGRELDITTLGSATAAIELLERERDFAVILLDVVMEKPHAGLSLVTMIRHDFNMQMSRIILRTGNPGYAPERDITLKLEIDDYILKQTAVRDRIITAVIVAIRAYDQLQRLARLKDAMQQIICCSNQLLTTDEIDQFANVCMQYVAPIFGKNAGGGLAYAGMTVNQGIVPLTVMSATSEHESLIEPLNGIGVLPPNISVTKKKMTKALEQTNSIKTDKDWYIYIKVSLGRKVVLWLNKPDGFDEIDETLGKSFANTIKACLDREGHHHHHH | soluble
4 | MSLNLNVLEIKSFVPAQDFTTSKQFYLSLGFELITEFGDVAYLRLGQCAFLLQNTHQRPHQGNTMMHLLVEDAQSWFDHVKTLQLEERFESKVTDLITQPWGMLEFCLVDPSDVLWRIGQRIGEGHHHHTTDPNSSSVDKLAAALEHHHHHH | soluble
5 | MSLNLSKTLKHVYQEAKVSDLFPITHLNSPCIFESQSGLVGSVIKVNGAAFEIEEAETLNHQRFLLHQALVSLDSRFIIYVTTHRQKISCPLIGEFKPGFAKDLDERYQQRFKDKNLYKNTLYITVVLKGDDTSKTGSWLKWAKSLSIKGNSELSEHHREQSIQTLNRVVEQLQANLNPFEATILGKQDEVLGFSELLQFLGLVVNAGQTTSFKHPVCSPPIANSIPQTFKQEVKYPEGHLGQYLSSCQLLFGECIQFQGNTQKDCVFGAMLSLKKYPTNTASILLDSMLSLDCEFIATHTFAPIGRDSALDTISKKRSKLLSAEDKALSQTTALSDLEDGIASETLLLGAHHHTVMLLAPNKSLLDAAILEATKRYGSAGIVVVKETLGLEPAFWSQLPCNQHFITRASLITSQNFVDFCPLHNTQTGFSNENFLGGAVTLLETPSKTPVYFNYHARGSKTEGHHHHHH | soluble
6 | MSLNNKGSGLTPAQALDKLDALYEQSVVALRNAIGNYITSGELPDENARKQGLFVYPSLTVTWDGSTTNPPKTRAFGRFTHAGSYTTTITRPTLFRSYLNEQLTLLYQDYGAHISVQPSQHEIPYPYVIDGSELTLDRSMSAGLTRYFPTTELAQIGDETADGIYHPTEFSPLSHFDARRVDFSLARLRHYTGTPVEHFQPFVLFTNYTRYVDEFVRWGCSQILDPDSPYIALSCAGGNWITAETEAPEEAISDLAWKKHQMPAWHLITADGQGITLVNIGVGPSNAKTICDHLAVLRPDVCYIGHCGGLRKVRPLADYVLAHAYLRDDHVLDAVLPPDIPIPSIAEVQRALYDATKLVSGRPGEEVKQRLRTGTVVTTDDRNWELRYSASALRFNLSRAVAIDMESATIAAQGYRFRVPYGTLLCVSDKPLHGEIKLPGQANRFYEGAISEHLQIGIRAIDLLRAEGDRLHSRKLRTFNEPPFREGHHHHHH | soluble
7 | MSLNPSESRSIAALREIVESARPLSYIRSSEEQRVERLLKDAAQRFFSTKVPVWTWSLTEGLRCDDGAVDASASDPRAALDFIAAYQGPALFHLKDFHEPLRERADIRRRLRDLYGACFDQGKFVVISSPVRYIPEELGRSIMYIELTLPDLAELIGFLREEVHAVKALGGSADTDDATLTQIARALQGLTLDESRHAIRRALAAGGGLGADSLPALYEEKRLLVNRTGMIQYVADGTQIASVGGLEIMKKWLMERRELFQLRDSISAEIVPKGVLIMGVSGCGKSLSVKAIASAFGLPLYRIDMTEIFSGRHGSAEGAFVSACRMLEQIAPAVVWFDEIEMGVNSTESAGEQGRIFAFFLTWMQEKTSGLFVAATANRIDLLPAEMTRKGRFDEIFFVDLPLDDERVEIFRIHLERRGIDTTPFDLTRLIKITKGWVGAEVEQCVVSALTTAHLDNREVTVEDLLRAAGKIVPLSKTMKEQVDHIRSWAYNRAVRASEGHHHHHH | soluble
8 | MSLNQLFCHPETITIKKAVYYDIAPIPLPTPFKDGTGGVRHASFFKGWMKIYDEDGFCGQGPAGPLMTDFFLPRMLNAPGKSNGEWMEYFWWEIRNFGYQSPYIPEMTNLDWLLLDLLANRAGLPLHRFLGADRDWACVYKGGGSVLLSDEALISDLQRFKDEGYKTTKFKIGGSGPDFSQDIRRLEKARQALGDGFGIAVDANQAWDAKTAFAFAKEAAPLGVAWLEEPVHAYDMDALRELRDLLDEAGIAMEIAMGESVRSYHTHVAYAEHGVDHLQPARLYCIAENMRVREYARRHGCRISTGGFTFQNAALGALYSEDELLEYHQPLNEVLVPYFSLVSEMKDGRFYLPDVPGLPVHLDFERLERDGLLRGIQFYYHKEGHHHHHH | soluble
9 | MSLNRLDVMILKILAEADRPMGSGRIAELIEERFGEKYSTRSIRYRLQKMEERGLIRRVRRNDRVVGAEITEWGLTMLKTETSSERVGMYISLIEEMAYRCSFDPEVMKGKVVCNISVVKREHLDDFLDAVVETYRAGISPSPLVAVKEDLSDHDVEVGEDEVAVLTVCSVTIDGVLINRGIPVTPVCGGLLYLEDGEPLGMQEYIKYEGSTVDPLHVFVAKGMTQVERVLETGTGLVPANVRYVPWAALEDVEHVERELEKADIRGIVDVPKVEGEILGIPLPPRSLGIVAYGGLVPVALLEERGISTRTYPTRTLVEYSSLEDARRYEGHHHHHH | soluble
10 | MSLNRPEADREALWKIVHDRCEFGYRRTGAYAPCTFVDEQSGTALYKADFDPYQFLLIPLARITGIEDPALRESAGRNYLYDAWAARFLVTARLNNSLPESDVVLTINPKNARTQDQLHIHISCSSPTTSAALRNVDTSEYVGWKQLPIDLGGRRFQGLAVDTKAFESRNLFRDIYLKVTADGKKMENASIAVANVAQDQFLLLLAEGTEDQPVAAETLQDHDCSITKSEGHHHHHH | not soluble
11 | MSLNSEAKSRIACDIDFDRDGRQAGYARAPLSRNNSGWGTVEIPITVVKNGSGPTVLLTGGVHGDEYEGQIAISDLARRLRPEEVQGRVIMLPAVNMPAIQSDTRLSPVDGRDINRCFPGDPRGTFSQMLAHFLDSVILPMADISVDMHTAGHSYDSTPSTNMHYLADPALRARTLAAAEAFGAPHNVVFGGVDEGSTFTSCVERRGIVSLGTELGGWGRVNIEGVRIGKRGILNVLKHMGVIEGTPETAQRGGAAGTRHMMVREADAYVMAPRTGLFEPTHYVGEEVRTGETAGWIHFVEDVDTAPLELLYRRDGIVWFGAGPGRVTRGDAVAVVMEDYNDTWPQEGHHHHHH | soluble
12 | MSLNSQEMVLGNAWLVLADRVIEHGWVAIADGVIAEVGEGDAPNGAKDMHGDLVMPGLVELHTDHLEAHYTPRPKVQWNPVAAVVSYDGQLATCGITTVLDSLRVWREEGAEEVDGQAIVLAGAISTARDAQLLRADHFLHLRCEIPMPNVVAEAKELIDRPDIRLMSLMDHTPGQRQFRDEEKLRDYYRGKGAGMTDAELDVMFARRVYCKENYADANMRAIVELAHRYEIPLASHDDTTPENVADAIRDRVAVAEFPTTLEAARELHQAGIDILMGAPNVVRGGSHSGNIAAIDLAHEGLLDILSSDYIPSSLLIAALQLPMRAPGIDLAAAIRTVTKAPAEAVGLNDRGEISKGKRADLIRVHVAHDVPAVRSVWREGQRVAEGHHHHHH | not soluble
13 | MSLNSSEHKIRITPLGGLGEIGGNISVFETNKDAIIVDIGMSFPDGTMHGVDIIIPDFDYVRKIKDKIRGIVITHAHEDHIGAVPYFFKEFQFPIYATPLALGMISNKFEEHGLKAERKWFRPVEKRRVYEIGEFDIEWIHITHSIIDASALAIKTKAGTIIHTGDFKIDQTPIDGYPTDLGRLAYYGEEGVLCLLSDSTNSYKEGYTKSESSVGLTFDQIFARTKGRVIMSTFSSNIHRVYQAITYGLKYGRKVCVIGRSMERNLYTTMELGYIKLDRKIFIDADEVSKYKDNEVLIVTTGSQGETMSALYRMATDEHKFIKIKPTDQVIISAKAIPGNEASVSAVLDYLLKAGAKVAYQEFSEIHVSGHASIEEQKLMLTLTKPKFFLPVHGEYNHITKHKETAMKCGIPERNIYLMSDGDQVELEGHHHHHH | soluble
14 | MSLNTGHASLAQWGMSCLQWQPEWSVLDIGCGGGANLLQILQRCPQGKAYGIDISPESVTFARKKNKKYLGTRCFIEQGGVHRLPYPDYAFDAVTAFETVYFWGNLQHAFTEVARVLKPGGSFLICCEISDPANKAWTGLVEGMEIHSCDELKAILSKSGFTDTAIFRTKKEELCLVSHRQTVRLEGHHHHHH | soluble
15 | MSLNVFNTASDEDIKKGLASDVYFERTISAIGDKCNDLRVAMEATVSGPLDTWINFTGLDEVLKLLEGLDVDLYAIPEGTILFPRDANGLPVPFIRVEGRYCDFGMYETAILGFICQASGISTKASKVRLAAGDSPFFSFGIRRMHPAISPMIDRSAYIGGADGVSGILGAKLIDQDPVGTMPHALSIMLGDEEAWKLTLENTKNGQKSVLLIDTYMDEKFAAIKIAEMFDKVDYIRLDTPSSRRGNFEALIREVRWELALRGRSDIKIMVSGGLDENTVKKLREAGAEAFGVGTSISSAKPFDFAMDIVEVNGKPETKRGKMSGRKNVLRCTSCHRIEVVPANVQEKTCICGGSMQNLLVKYLSHGKRTSEYPRPKEIRSRSMKELEYFKDISEGHHHHHH | soluble
16 | MSLPNCLQCQSEYVYEDGLLLICPMCAFEWTPGEEATEEEGLVVLDSNGVRLSDGDTITVVKDLKVKGAPKDLKQGTRVKNIRLVEGDHNIDCKIDGFGAMKLKSEFVKKI | not soluble
17 | MSLPPKFWIIIIVKKIDQQSLENAYRLFESGDIHQIEIGSTKGLQQIHHYLFNGLYEFAGKIREQNISKGHFRFANALYLKEALGKIEQMPEDTFENIINKYVEMNIAHPFLEGNGRSTRIWLDLVLKKHLGKVVNWQNVDKTQYLQAMERSPINDLEIRFLLQANLTDDVNNREIIFKGIEQSYYYEGYEKEEGGSHHHHHH | soluble
18 | MSLPRLDARLKLVAAEIRGKIHADIGSDHGHLLAALLSADRIERGIAVENKLQPYRNSSATLERLNAEVRLGEGMDVIEENEIDSLSICGMGGQSIVRILSEHPNRLPKQLVLQPNQAIASVRQWARDNGYWLTDEKCTGTKRRFEVLVFSRFGPPHDPVYQKLNEVGLDESMGLMFGPWFLLRKDERLLQRLAEEQRYLQSKQNLTQTSRARVETIRRLLSSDHFLSREGHHHHHH | soluble
19 | MSLPYSSSGVGHNGFDKADLHIHTKCSDGLFTPEEIVHKAIHVGLKAISITDHDTVTGIDQAKPLALELGLELIPGVEMSSAYKGYDIHILGYFFDYQQSELKGYLDHCRLLRTERAERMVQKLAKMGVKIEIEQIIMKAQNGSVGRPHIAAVLQDEGFVKSFSEAFSKYLGSHSPAYVKSIETHPEEVIRLINEAGGLSFLAHPAQNVPDEILRQLISFGLDGLEIIHPSHDTYRQNYYREIANEYFLLFSGGSDYHGPKDHEDNFGQVWIPYEWVTKMKSRLAPAVKEGHHHHHH | soluble
